Data on 31 molecules can be found in paper PMC10786891, “Massively parallel profiling of RNA-targeting CRISPR-Cas13d”.

Substitutions are numbered along the chain they refer to. Numbers in names are those of the source.

B1: target 1 G12U,A20U (mixed)
RNA 1: CACCCGUGCAAAAAUGCAGGGGUCUAAAACUGAGCGGAUAACCUCUCUAUGG
RNA 2: GGGAAUGGAUCCACAUCUACGAAUUCGUACCUUAGAGAGUUUAUCCGCUCACCGAGAUCGGAAGAGCACACGU
B2: target 1 C7U,A18C (mixed)
RNA 1: B1 RNA 1
RNA 2: B1 RNA 2 with U32A, A34C, U40G, C45U
B3: target 1 A9C,G15A (mixed)
RNA 1: B1 RNA 1
RNA 2: B1 RNA 2 with U32A, G37A, U40G, A43C
B4: target 1 G5A,C7A (mixed)
RNA 1: B1 RNA 1
RNA 2: B1 RNA 2 with U32A, U40G, C45A, G47A
B5: target 2 MT 5'PFS UCU 3'PFS AUG (mixed)
RNA 1: CACCCGUGCAAAAUUGCAGGGGUCUAAAACCUUCUCCAAAUUGUUUCAUCCU
RNA 2: GGGAAUGGAUCCACAUCUACGAAUUCUCUAGGAUGAAACAAUUUGGAGAAGAUGAGAUCGGAAGAGCACACGU
B6: target 2 MT 5'PFS AUA 3'PFS UCC (mixed)
RNA 1: B5 RNA 1
RNA 2: B5 RNA 2 with U27A, C28U, U29A, A52U, U53C, G54C
B7: target 2 MT 5'PFS AUA 3'PFS UCU (mixed)
RNA 1: B5 RNA 1
RNA 2: B5 RNA 2 with U27A, C28U, U29A, A52U, U53C, G54U
B8: target 2 MT 5'PFS UAA 3'PFS CUG (mixed)
RNA 1: B5 RNA 1
RNA 2: B5 RNA 2 with C28A, U29A, A52C
B9: target 2 MT 5'PFS AUU 3'PFS AUA (mixed)
RNA 1: B5 RNA 1
RNA 2: B5 RNA 2 with U27A, C28U, G54A
B10: target 2 MT 5'PFS CGG 3'PFS ACU (mixed)
RNA 1: B5 RNA 1
RNA 2: B5 RNA 2 with U27C, C28G, U29G, U53C, G54U
B11: target 2 MT 5'PFS UAG 3'PFS CGA (mixed)
RNA 1: B5 RNA 1
RNA 2: B5 RNA 2 with C28A, U29G, A52C, U53G, G54A
B12: target 2 MT 5'PFS GCU 3'PFS ACC (mixed)
RNA 1: B5 RNA 1
RNA 2: B5 RNA 2 with U27G, U53C, G54C
B13: target 2 MT 5'PFS GCA 3'PFS AGU (mixed)
RNA 1: B5 RNA 1
RNA 2: B5 RNA 2 with U27G, U29A, U53G, G54U
B14: target 2 MT 5'PFS UUU 3'PFS AGA (mixed)
RNA 1: B5 RNA 1
RNA 2: B5 RNA 2 with C28U, U53G, G54A
B15: target 2 MT 5'PFS AGC 3'PFS UUG (mixed)
RNA 1: B5 RNA 1
RNA 2: B5 RNA 2 with U27A, C28G, U29C, A52U
B16: target 2 MT 5'PFS UAG 3'PFS CGG (mixed)
RNA 1: B5 RNA 1
RNA 2: B5 RNA 2 with C28A, U29G, A52C, U53G
B17: target 2 MT 5'PFS UAA 3'PFS CUA (mixed)
RNA 1: B5 RNA 1
RNA 2: B5 RNA 2 with C28A, U29A, A52C, G54A
B18: target 2 MT 5'PFS CGG 3'PFS ACG (mixed)
RNA 1: B5 RNA 1
RNA 2: B5 RNA 2 with U27C, C28G, U29G, U53C
B19: target 2 MT 5'PFS GAA 3'PFS UUC (mixed)
RNA 1: B5 RNA 1
RNA 2: B5 RNA 2 with U27G, C28A, U29A, A52U, G54C
B20: target 2 MT 5'PFS UAA 3'PFS CUU (mixed)
RNA 1: B5 RNA 1
RNA 2: B5 RNA 2 with C28A, U29A, A52C, G54U
B21: target 2 MT 5'PFS AUU 3'PFS AUC (mixed)
RNA 1: B5 RNA 1
RNA 2: B5 RNA 2 with U27A, C28U, G54C
B22: target 2 MT 5'PFS AUA 3'PFS UCA (mixed)
RNA 1: B5 RNA 1
RNA 2: B5 RNA 2 with U27A, C28U, U29A, A52U, U53C, G54A
B23: target 2 MT 5'PFS GUC 3'PFS AUU (mixed)
RNA 1: B5 RNA 1
RNA 2: B5 RNA 2 with U27G, C28U, U29C, G54U
B24: target 2 MT 5'PFS AGC 3'PFS UUU (mixed)
RNA 1: B5 RNA 1
RNA 2: B5 RNA 2 with U27A, C28G, U29C, A52U, G54U
B25: target 2 MT 5'PFS UAA 3'PFS CUC (mixed)
RNA 1: B5 RNA 1
RNA 2: B5 RNA 2 with C28A, U29A, A52C, G54C
B26: target 2 MT 5'PFS AGC 3'PFS UUA (mixed)
RNA 1: B5 RNA 1
RNA 2: B5 RNA 2 with U27A, C28G, U29C, A52U, G54A
B27: target 2 MT 5'PFS GCU 3'PFS ACG (mixed)
RNA 1: B5 RNA 1
RNA 2: B5 RNA 2 with U27G, U53C
B28: target 2 MT 5'PFS AUA 3'PFS UCG (mixed)
RNA 1: B5 RNA 1
RNA 2: B5 RNA 2 with U27A, C28U, U29A, A52U, U53C
B29: target 2 MT 5'PFS GCU 3'PFS ACA (mixed)
RNA 1: B5 RNA 1
RNA 2: B5 RNA 2 with U27G, U53C, G54A
B30: target 2 MT 5'PFS UUG 3'PFS UUU (mixed)
RNA 1: B5 RNA 1
RNA 2: B5 RNA 2 with C28U, U29G, A52U, G54U
B31: target 2 MT 5'PFS GCU 3'PFS ACU (mixed)
RNA 1: B5 RNA 1
RNA 2: B5 RNA 2 with U27G, U53C, G54U

The data set addresses T1, EsCas13d, nuclease-dead (Eubacterium siraeum, UniProt B0MS50, R295A;H300A;R849A;H854A).
T1 sequence: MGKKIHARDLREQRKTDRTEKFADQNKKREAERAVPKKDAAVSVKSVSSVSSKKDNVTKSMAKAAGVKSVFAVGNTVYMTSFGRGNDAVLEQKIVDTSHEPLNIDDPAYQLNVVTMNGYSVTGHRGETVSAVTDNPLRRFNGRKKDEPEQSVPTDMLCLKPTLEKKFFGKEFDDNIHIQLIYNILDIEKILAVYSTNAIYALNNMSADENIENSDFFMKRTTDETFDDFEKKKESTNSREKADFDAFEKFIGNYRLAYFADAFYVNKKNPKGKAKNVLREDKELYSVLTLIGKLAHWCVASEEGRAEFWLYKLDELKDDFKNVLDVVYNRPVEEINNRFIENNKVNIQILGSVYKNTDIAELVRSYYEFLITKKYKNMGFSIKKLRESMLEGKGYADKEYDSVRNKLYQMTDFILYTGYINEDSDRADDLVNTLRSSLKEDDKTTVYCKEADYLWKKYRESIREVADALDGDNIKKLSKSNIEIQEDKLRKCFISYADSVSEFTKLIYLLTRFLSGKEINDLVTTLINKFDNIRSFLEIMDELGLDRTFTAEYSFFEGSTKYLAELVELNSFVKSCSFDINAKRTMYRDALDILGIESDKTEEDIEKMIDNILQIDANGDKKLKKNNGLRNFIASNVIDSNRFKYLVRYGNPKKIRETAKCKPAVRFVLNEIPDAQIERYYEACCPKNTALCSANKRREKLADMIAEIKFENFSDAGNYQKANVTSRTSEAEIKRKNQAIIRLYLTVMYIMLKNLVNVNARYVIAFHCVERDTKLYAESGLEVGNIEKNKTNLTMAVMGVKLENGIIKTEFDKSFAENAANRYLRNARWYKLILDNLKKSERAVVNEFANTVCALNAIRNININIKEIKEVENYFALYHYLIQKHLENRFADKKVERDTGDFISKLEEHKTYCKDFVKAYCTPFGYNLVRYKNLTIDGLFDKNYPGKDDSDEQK
Put plainly: crRNA (strand 1, pre-loaded); Mg2+; 40 mM Tris-HCl pH 7.5, 150 mM NaCl, 6 mM MgCl2, 1 mM DTT, 0.1% Tween-20, 0.2 mg/ml BSA; 25 C; 10 min per concentration, then washed. Conditions: tags: His6-TwinStrep-SUMO cleaved; N-terminal SNAP kept (SNAP-Surface 488); label: 3' end held by stalled T7 RNA polymerase.
The term Kd denotes the free concentration of one partner at which half of the binding sites on the other are occupied at equilibrium, for simple one-to-one binding. A higher Kd goes with lower affinity. As to B1, the Kd stood at 27.5 ± 2.3 nM.

Consider B2, for which the Kd was determined as 55 ± 5 nM.

As to B3, binding was put at a Kd of 35 ± 5 nM.

Regarding B4, binding was characterised by a dissociation constant (Kd) of 10.3 ± 0.6 nM.

Regarding B5, the Kd is 8.3 ± 1.5 nM.

On to B6, for which the affinity, expressed as Kd, was 15.6 ± 2.1 nM. This Kd is about 1.9-fold higher than that of the molecule before.

As for B7, binding was characterised by a dissociation constant (Kd) of 33 ± 15 nM. Against the preceding molecule, the Kd is about 2.1-fold higher.

In turn, B8 displayed a Kd of 6.2 ± 1.1 nM.

On to B9, for which the Kd was 5.3 ± 0.4 nM.

Molecule B10 returned a Kd of 6.8 ± 1.1 nM.

The molecule B11 returned a Kd of 2.55 ± 0.33 nM.

Turning to B12, the Kd is roughly 30 nM.

For B13, the dissociation constant (Kd) was determined as 28 ± 10 nM.

In turn, B14 gave a Kd of 7.3 ± 0.8 nM.

Regarding B15, the affinity, expressed as Kd, was 10.6 ± 1.4 nM.

On to B16, for which the affinity, expressed as Kd, was 2.89 ± 0.35 nM.

As for B17, the affinity, expressed as Kd, was 4.6 ± 0.5 nM.

Turning to B18, the affinity, expressed as Kd, was 4.05 ± 0.24 nM.

The molecule B19 gave a Kd of roughly 70 nM.

Molecule B20 came in with an equilibrium dissociation constant (Kd) of 6.9 ± 1.5 nM.

In turn, B21 displayed a Kd of 9.5 ± 1 nM. This Kd and that of the molecule before are within 1.5-fold of each other.

Turning to B22, the Kd turned out to be 12.3 ± 2.6 nM.

For the molecule B23, binding was put at a Kd of 11.2 ± 1.3 nM.

Molecule B24 gave a Kd of 20 ± 4 nM.

The molecule B25 showed a Kd of 6.7 ± 0.9 nM. Against the preceding molecule, the Kd is about 3-fold lower.

B26 yielded a Kd of 10.9 ± 2.4 nM.

Take B27: the Kd is 14.6 ± 1.4 nM.

Regarding B28, the dissociation constant (Kd) came out at 20 ± 6 nM.

Molecule B29 yielded a Kd of 15 ± 4 nM.

For B30, binding was characterised by a dissociation constant (Kd) of 25.5 ± 3.3 nM.

Molecule B31 showed a Kd of 23 ± 4 nM.
